For the test, the target named is mAb-1E7. Briefly: SPR; Biacore 8K; mAb-1E7 immobilized on a Protein G chip; PCV2-Cap or Nb61 injected at 30 µL/min, 1.5625 to 25 nM; 10 mM HEPES pH 7.4, 150 mM NaCl, 3 mM EDTA, 0.05% Tween 20.
mAb-1E7, sequence (heavy, as listed by the source, chain 1 of 2): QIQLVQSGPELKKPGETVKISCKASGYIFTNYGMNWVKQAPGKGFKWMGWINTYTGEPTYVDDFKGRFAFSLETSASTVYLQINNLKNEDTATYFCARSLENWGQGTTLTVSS
mAb-1E7, sequence (light, as listed by the source, chain 2 of 2): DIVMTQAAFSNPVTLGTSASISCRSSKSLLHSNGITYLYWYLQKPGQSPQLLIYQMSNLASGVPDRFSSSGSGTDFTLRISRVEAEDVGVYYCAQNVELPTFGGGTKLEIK

B1: Nb61 (VHH)
VHH: QVQLQESGGGSVQAGGSLRLSCAGSDFPYCSYDMSWYRQAPGKEREFVSGIDRDGTIRYADAVKGRFTISQGDAKNTLYLQMNSLKPEDTAMYYCKTTPRNYNDFLGCVDYWGQGTQVTVSS
In general, Kd refers to the concentration at which binding is half-saturated. Read a high Kd as lower affinity. Broadly, the koff is the first-order rate constant of dissociation. A low value points to a long-lived complex. The kon is the rate constant with which the complex forms. Read a low kon as slower complex formation. Molecule B1 gave a Kd of 12 nM, a koff of 0.0222 s⁻¹ and a kon of 1.86e+06 M⁻¹ s⁻¹.

These data come from publication PMC10878242.
